assay: label from the status in PepcDB records

Q: With “SAESSKLSATTVEAAPAMIKAKDVISPSEKEESDQTEITKVSVLKNLDEKEMIKEFADRLQRLEAKVDLLVTKADLLAIKADIQELLISAKGEKVPAMKTSAKASSESDDSYMDTSSEDESSSAEEPVNKPAASAAKPATKDSLFSAGFKPAAKDSLFSAGFKPDSLFSAGFEPAAKDSLFSAGFKPGSLFSAGFEPAAKDSLFSAGFKPDSLFSVGVKPAAKDSLFSVGVNGRSFSVTGFDASLPVDDIKSALSKYFSSFGEITRVFVPPSHGTGGSLGYAYIDLKEGAEKALELGRHDVGGWDLVVGKAEPIRSGSTWPFPGRCGNQGRCTFC” as the sequence, how does the protein production read?
A: failed

Q: Which protein production does the source give for “SAPFDVIGPQEPILAVVGEDAELPCRLSPNVSAKGMELRWFREKVSPAVFVSREGQEQEGEEMAEYRGRVSLVEDHIAEGSVAVRIQEVKASDDGEYRCFFRQDENYEEAIVHLKVAA” here?
A: failed

Q: Which protein production does the source give for “SAQGLIEVERKFAPGPDTEERLQELGATLEHRVTFRDTYYDTSELSLMLSDHWLRQREGSGWELKCPGVTGVSGPHNEYVEVTSEAAIVAQLFELLGSGEQKPAGVAAVLGSLKLQEVASFITTRSSWKLALSGAHGQEPQLTIDLDSADFGYAVGEVEAMVHEKAEVPAALEKIITVSSMLGVPAQEEAPAKLMVYLQRFRPLDYQRLLEAASSGEATGDSAS” here?
A: not failed

Q: Which protein production does the source give for “SARFALTVVRHGETRFNKEKIIQGQGVDEPLSETGFKQAAAAGIFLNNVKFTHAFSSDLMRTKQTMHGILERSKFCKDMTVKYDSRLRERKYGVVEGKALSELRAMAKAAREECPVFTPPGGETLDQVKMRGIDFFEFLCQLILKEADQKEQFSQGSPSNCLETSLAEIFPLGKNHSSKVNSDSGIPGLAASVLVVSHGAYMRSLFDYFLTDLKCSLPATLSRSELMSVTPNTGMSLFIINFEEGREVKPTVQCICMNLQDHLNGLTETR” here?
A: not failed

Q: With “SASFVTSKRDFRARAHSNPLNDAEFLVPEDPLRFDWSPFIPDVGSHPIDYVDLGCGYGGLLCELSIAFPNKYMLGMEIRDRVASYCVTKLEELRRLNSKGYRNIGFIRTNCMKFLPFYFPPSSVEKFFICFPDPHFKKKKHRQRLVSLRFLSEAAYCLRPGGMIYIVTDVEELFAWMTNLFAQHPLFLTMDKELVKQQDVLLPYLLNHTDEAQRMKRRGQDTPYWNVFQRKTVFC” as the sequence, how does the protein production read?
A: failed

Q: For “SATQIPSTISILATSDIHGNVLNYDYATGKAPTNTQGLAKVSSYVNSVRASKPNVMLIDDGDTIQGTPLSYYYDKIDTTSEYPLMKIMGAMKYDTWTLGNHEFNYGLPTLNRVISDARKENINVLSANTYNSDNTNFVNPYYIKTFNINGKTVNVGILGLTTKCIPDWEDPSHYAGLHFNDLVDEAKLWVPRMKAAGANVVIVAAHSGEEGAADTIPENQIKAIATNVSGIDAIVAGHAHVTVNDTSLKNPNGKTVPVVEPNKWGTFVSQIDITLDNSGNASTINTQNVKMTDSIPEDPNIVNIIQPYQNKTLDYIST”, which protein production is on record?
A: failed

Q: With “SCDSIREDLPRCELWLEFVFDYNMEYADAFNPQVKSVDVLVFDSDDKLLFTKSVKVAALVGGNRMSLTDELDFGSYKVLTVGSLSDRFRLSDNAGNKLVPGTTTLQQVIVSLKRETGGVNFEFQHLYFGEVVEVDHLPSNTNHKIYPVNLIRDTNRFNLALMGYEENKVDGTQYTFEIQAPENAVYSWENEPTGQGPITYVPYYTGPGEISDVVMSARLNTMRLLNRSGWDYKFIIRDANTEAEVWSYNLMTLLSIARPVSRYDGTELPFQEYLDRQSEWNLVFTVVEKNGGGFLQIGIVVGTWIHWLHGMEV” as the sequence, how does the protein production read?
A: not failed

Q: Which protein production does the source give for “SDCDIEGKDGKQYESVLMVSIDQLLDSMKEIGSNCLNNEFNFFKRHICDANKEGMFLFRAARKLRQFLKMNSTGDFDLHLLKVSEGTTILLNCTGQVKGRKPAALGEAQPTKSLEENKSLKEQKKLNDLCFLKRLLQEIKTCWNKILMGTKEH” here?
A: not failed

Q: For “SDFSRNLYDIGEQLDSEDLASLKFLSLDYIPQRKQEPIKDALMLFQRLQEKRMLEESNLSFLKELLFRINRLDLLITYLNTRKEEMERELQTPGRAQISAYRVMLYQISEEVSRSELRSFKFLLQEEISKCKLDDDMNLLDIFIEMEKRVILGEGKLDILKRVCAQINKSLLKIINDYEEFSKGEELCGVMTISDSPREQDSESQTLDKVYQMKSKPRGYCLIINNHNFAKAREKVPKLHSIRDRNGTHLDAGSHSVAQAGVQWCDLGSLQPPPPWFG”, which protein production is on record?
A: not failed

Q: With “SDIGQVIHPDDFDKAAADDYVLHEDGEKIYFLIKSKTDEYCFTNLALVHLDGESAVSSKRVLYRYPYAHYPIRHVMFETAGTVDLDVEIKFEIGGKHYSIDVDKKQLEHVKDLYKALLAIAEKQYEGQKMLEFANSSLNHSVTILGGLRQGDMNVPQTFKDLSQESFDWLQGHYYKWNQKDFGSFYEKYINN” as the sequence, how does the protein production read?
A: not failed
